Where a chain is given by its changes, count along the chain named.

Data on eight molecules can be found in patent US20130209489A1 (Amgen, published 2013).

B1: anti-myostatin antibody 12A5-1 (antibody, V domains shown)
VH: EVQLVESGGGLVQPGGSLRLSCAASGFTFSNYWMNWVRQAPGKGLEWVAQIRLKSDNYATHYAESVKGRFTISRDNAKNSLYLQMNSLRAEDTAVYYCARGLDYWGQGTTVTVSS
VL: DIQMTQSPSSLSASVGDRVTITCKASQDINKYVAWYQQKPGKAPKLLIYYTSTLQPGVPSRFSGSGSGTDFTFTISSLQPEDIATYYCLQYDNLLYTFGQGTKLEIK
B2: anti-myostatin antibody 12A5-6 (antibody, V domains shown)
VH: B1 VH with N31R, A99T, R100E
VL: B1 VL with T53F, N93A
B3: anti-myostatin antibody 12A5-18 (antibody, V domains shown)
VH: B1 VH with S30R, M34C, A99T, R100E
VL: B1 VL with T53H
B4: anti-myostatin antibody 12A5-9 (antibody, V domains shown)
VH: B1 VH with S30R, M34C, A99T, R100E
VL: B1 VL with S52R
B5: anti-myostatin antibody 12A5-10 (antibody, V domains shown)
VH: B1 VH with S30R, M34C, A99T, R100E
VL: B1 VL with L94K
B6: anti-myostatin antibody 12A5-3 (antibody, V domains shown)
VH: B1 VH with M34C, A99T, R100E
VL: B1 VL with T53F
B7: anti-myostatin antibody 12A5-12 (antibody, V domains shown)
VH: B1 VH with M34L, A99T, R100E
VL: B1 VL with T53W
B8: anti-myostatin antibody 12A5-8 (antibody, V domains shown)
VH: B1 VH with S30R, M34C, A99T, R100E
VL: B1 VL with S52K

The test addresses mature human myostatin (human, UniProt O14793 267-375). The experiment in a line: cell-based or functional assay.
For B1, the “IC50 (nM), C2C12/pMARE luciferase reporter cell myostatin activity assay” value came out at 473 nM.

Take B2: the “IC50 (nM), C2C12/pMARE luciferase reporter cell myostatin activity assay” value turned out to be 1.64 nM.

Regarding B3, the “IC50 (nM), C2C12/pMARE luciferase reporter cell myostatin activity assay” value is 1.45 nM.

Consider B4, for which the “IC50 (nM), C2C12/pMARE luciferase reporter cell myostatin activity assay” value came to 3.98 nM.

On to B5, for which the “IC50 (nM), C2C12/pMARE luciferase reporter cell myostatin activity assay” value came to 3.08 nM.

Take B6: the “IC50 (nM), C2C12/pMARE luciferase reporter cell myostatin activity assay” value worked out at 2.53 nM.

Turning to B7, the “IC50 (nM), C2C12/pMARE luciferase reporter cell myostatin activity assay” value is 1.45 nM.

For the molecule B8, the “IC50 (nM), C2C12/pMARE luciferase reporter cell myostatin activity assay” value was found to be 4.96 nM.
